According to PMC3463532:

Legend:
[1] = molecular target: Dictyostelium discoideum p97, purified recombinant wild-type (D. discoideum) (UniProt P90532); test: native gel or EMSA; blue native PAGE (BN-PAGE) of the affinity purified recombinant protein, Coomassie staining; SDS-PAGE beside it; monomers to hexamer
[2] = molecular target: Dictyostelium discoideum p97^R155C, purified recombinant (D. discoideum) (UniProt P90532); test: as above

| stoichiometry N [1] | stoichiometry N [2] | Substance |
| --- | --- | --- |
| 6 | – | Dictyostelium discoideum p97, purified recombinant wild-type (from UniProt P90532 1-793) (natural protein) |
| – | 6 | Dictyostelium discoideum p97^R155C, purified recombinant (from UniProt P90532 1-793) (natural protein) |
